Results: patent US20240317834A1, “COMPOSITIONS AND METHODS FOR NEUROLOGICAL DISEASES” (CODA BIOTHERAPEUTICS, INC., priority 2020, published 2024)
Residue numbers refer to the chain shown, from its start. In names and notes the source's numbering stands.

Tested on: Lenti-X 293T cells
Assay: YFP fluorescence quenching anion reporter plate reader assay of engineered receptors stimulated with acetylcholine or a non-native ligand
Type: cell-based
Details: for percent quench of YFP fluorescence, 10 uM ach: acetylcholine 10 uM; for percent quench of YFP fluorescence, 100 uM ach: acetylcholine 100 uM; for percent quench of YFP fluorescence, 1 mM ach: acetylcholine 1 mM; for percent quench of YFP fluorescence, 3 mM ach: acetylcholine 3 mM
From the text: To screen these mutant LGICs for those having novel response profiles to ligands, an anion reporter assay was developed to assess the function of the LGICs in a high throughput format. In this assay, cells expressing a YFP reporter whose fluorescence is quenched in the presence of anion are transfected with DNA encoding the channel of interest. Upon exposure to ligand, channels that are activated will flux anion, resulting in a dose-dependent quench of the YFP that can be detected on a plate reader. The greater the quench signal (i.e., the more positive the value), the higher the ligand activity on the receptor is.
Lenti-X 293T cells (LX293T, Clontech) were maintained in DMEM containing 10% FBS and 1% penicillin/streptomycin (Invitrogen). […] Two days before assay, cells were split at a density of 20,000 cells/well in a 96-well tissue culture plate coated with poly-d lysine (Thermo Scientific). The next day, the cells were transiently transfected with 0.1 μg of DNA per well using standard Fugene protocol (Promega). On the day of assay, cells were washed 2 times in 1× extracellular solution (1×ECS: 140 mM NaCl, 5 mM KCl, 1 mM MgCl2, 2 mM CaCl2), 10 mM HEPES, 10 mM glucose, pH 7.2, mOsms 300). After the last wash, 100 μL of 1×ECS was added to the wells and the plate was incubated at 37° C. for 30 min. While incubating the plate, the drugs were diluted to a 2× concentration in 1×ECS-NaI (same components as 1×ECS except the 140 mM NaCl was replaced by 140 mM NaI). The plates were then read on a Flexstation3 (Molecular Devices). Each well, 8 wells at a time, of the plate is read for 2 min using a Flexstation3 (Molecular Devices) as follows: 1) a baseline YFP fluorescence is read for 17 sec, 2) 100 μL of ligand is added, and 3) the changes in YFP fluorescence are then measured every 1.3 sec for 1 minute and 43 seconds. The percent quench is calculated from the average fluorescence of the last 10 seconds of the read divided by the baseline average of the first 15 seconds prior to the ligand addition.
FIGS. 1A-1J provide heat maps of the percent quench of YFP fluorescence following stimulation by various doses of either acetylcholine or the non-native ligand as indicated in the Figures. CODA71 (SEQ ID NO: 33) was used as a control, and CODA75 (SEQ ID NO: 29, a non-responding chimeric engineered receptor) was used as the negative control. Quenching of the fluorescence signal, as indicated by blue shaded cells, indicate the level of engineered receptor activation by the non-native ligand at that concentration.

B1: CODA282: engineered chimeric LGIC receptor, Y115D in SEQ ID NO: 33 (protein)
chain: MRCSPGGVWLALAASLLHVSLQGEFQRKLYKELVKNYNPLERPVANDSQPLTVYFSLSLLQIMDVDEKNQVLTTNIWLQMSWTDHYLQWNVSEYPGVKTVRFPDGQIWKPDILLDNSADERFDATFHTNVLVNSSGHCQYLPPGIFKSSCPMDLKNFPMDVQTCKLKFGSWSYGGWSLDLQMQEADISGYIPNGEWDLVGIPGKRSERFYECCKEPYPDVTFTVTMRRRMGYYLIQMYIPSLLIVILSWISFWINMDAAPARVGLGITTVLTMTTQSSGSRASLPKVSYVKAIDIWMAVCLLFVFSALLEYAAVNFVSRQHKELLRFRRKRRHHKSPMLNLFQEDEAGEGRFNFSAYGMGPACLQAKDGISVKGANNSNTTNPPPAPSKSPEEMRKLFIQRAKKIDKISRIGFPMAFLIFNMFYWIIYKIVRREDVHNQ
modifications: synthetic sequence of chimeric LGIC
1 nM CNL001, first column
  YFP fluorescence quenching using CNL001: −15.837%
1 nM CNL001, second column
  YFP fluorescence quenching using CNL001: −6.519%
1 nM brd
  YFP fluorescence quenching using TC-5619/Bradanicline: −0.54%
3 nM brd
  YFP fluorescence quenching using TC-5619/Bradanicline: −7.22%
3 nM var, first column
  YFP fluorescence quenching using Varenicline: 2.111
3 nM var, second column
  YFP fluorescence quenching using Varenicline: −12.265
10 nM CNL001, first column
  YFP fluorescence quenching using CNL001: −4.862%
10 nM CNL001, second column
  YFP fluorescence quenching using CNL001: −8.244%
10 nM brd
  YFP fluorescence quenching using TC-5619/Bradanicline: −2.82%
30 nM brd
  YFP fluorescence quenching using TC-5619/Bradanicline: −16.67%
30 nM fac
  YFP fluorescence quenching using Facinicline: 10.17
30 nM var, first column
  YFP fluorescence quenching using Varenicline: −4.433
30 nM var, second column
  YFP fluorescence quenching using Varenicline: −6.153
50 nM CNL001, first column
  YFP fluorescence quenching using CNL001: −3.807%
50 nM CNL001, second column
  YFP fluorescence quenching using CNL001: −2.871%
50 nM abt
  YFP fluorescence quenching using ABT-126: −21.22%
100 nM CNL001, first column
  YFP fluorescence quenching using CNL001: −7.924%
100 nM CNL001, second column
  YFP fluorescence quenching using CNL001: 2.11%
100 nM CNL002
  YFP fluorescence quenching using CNL002: −9.7%
100 nM abt
  YFP fluorescence quenching using ABT-126: −19.7%
100 nM azd0328
  YFP fluorescence quenching using AZD-0328: 3.19%
100 nM brd
  YFP fluorescence quenching using TC-5619/Bradanicline: −0.02%
100 nM fac
  YFP fluorescence quenching using Facinicline: 24.77
300 nM abt
  YFP fluorescence quenching using ABT-126: −15.55%
300 nM azd0328
  YFP fluorescence quenching using AZD-0328: 4.79%
300 nM brd
  YFP fluorescence quenching using TC-5619/Bradanicline: −12.37%
300 nM fac
  YFP fluorescence quenching using Facinicline: 51.04
300 nM var, first column
  YFP fluorescence quenching using Varenicline: −0.861
300 nM var, second column
  YFP fluorescence quenching using Varenicline: −1.308
500 nM var, first column
  YFP fluorescence quenching using Varenicline: 0.733
500 nM var, second column
  YFP fluorescence quenching using Varenicline: −4.633
1 uM CNL001, first column
  YFP fluorescence quenching using CNL001: 11.047%
1 uM CNL001, second column
  YFP fluorescence quenching using CNL001: 8.04%
1 uM CNL002
  YFP fluorescence quenching using CNL002: −8.37%
1 uM abt
  YFP fluorescence quenching using ABT-126: −14.31%
1 uM brd
  YFP fluorescence quenching using TC-5619/Bradanicline: 31.23%
1 uM tc6987
  YFP fluorescence quenching using TC-6987: 13.01
1 uM var, first column
  YFP fluorescence quenching using Varenicline: −4.512
1 uM var, second column
  YFP fluorescence quenching using Varenicline: 0.02
10 uM fac
  YFP fluorescence quenching using Facinicline: 79.76
10 uM tc6987
  YFP fluorescence quenching using TC-6987: 14.73
30 uM CNL002
  YFP fluorescence quenching using CNL002: 3.4%
30 uM azd0328
  YFP fluorescence quenching using AZD-0328: 76.78%
30 uM fac
  YFP fluorescence quenching using Facinicline: 81.7
500 uM tc6987
  YFP fluorescence quenching using TC-6987: 14.29
TC-6683 30 nM
  percent quench of YFP fluorescence, 30 nM TC-6683: 0.365%
TC-6683 300 nM
  percent quench of YFP fluorescence, 300 nM TC-6683: −6.865%
TC-6683 3 uM
  percent quench of YFP fluorescence, 3 uM TC-6683: −4.927%
TC-6683 30 uM
  percent quench of YFP fluorescence, 30 uM TC-6683: −11.259%
TC-6683 100 uM
  percent quench of YFP fluorescence, 100 uM TC-6683: −11.894%
  percent quench of YFP fluorescence, 10 uM ach: 6.81%
  percent quench of YFP fluorescence, 100 uM ach: 1.19%
  percent quench of YFP fluorescence, 1 mM ach: −14.05%
  percent quench of YFP fluorescence, 3 mM ach: 2.37%

B2: CODA283: engineered chimeric LGIC receptor, Y115E_N379K in SEQ ID NO: 33 (protein)
chain: B1 chain with D115E, N379K
modifications: synthetic sequence of chimeric LGIC
1 nM CNL001, first column
  YFP fluorescence quenching using CNL001: −0.713%
1 nM CNL001, second column
  YFP fluorescence quenching using CNL001: −0.621%
1 nM brd
  YFP fluorescence quenching using TC-5619/Bradanicline: 0.59%
3 nM brd
  YFP fluorescence quenching using TC-5619/Bradanicline: −6.41%
10 nM CNL001, first column
  YFP fluorescence quenching using CNL001: 7.739%
10 nM CNL001, second column
  YFP fluorescence quenching using CNL001: 15.277%
10 nM brd
  YFP fluorescence quenching using TC-5619/Bradanicline: −1.58%
30 nM brd
  YFP fluorescence quenching using TC-5619/Bradanicline: −14.24%
30 nM fac
  YFP fluorescence quenching using Facinicline: 6.39
50 nM CNL001, first column
  YFP fluorescence quenching using CNL001: 19.489%
50 nM CNL001, second column
  YFP fluorescence quenching using CNL001: 33.703%
50 nM abt
  YFP fluorescence quenching using ABT-126: −22.65%
100 nM CNL001, first column
  YFP fluorescence quenching using CNL001: 56.886%
100 nM CNL001, second column
  YFP fluorescence quenching using CNL001: 60.171%
100 nM CNL002
  YFP fluorescence quenching using CNL002: −5.81%
100 nM abt
  YFP fluorescence quenching using ABT-126: −20.55%
100 nM azd0328
  YFP fluorescence quenching using AZD-0328: −2.1%
100 nM brd
  YFP fluorescence quenching using TC-5619/Bradanicline: 33.36%
300 nM abt
  YFP fluorescence quenching using ABT-126: −12.93%
300 nM azd0328
  YFP fluorescence quenching using AZD-0328: 38.2%
300 nM brd
  YFP fluorescence quenching using TC-5619/Bradanicline: 43.81%
300 nM fac
  YFP fluorescence quenching using Facinicline: 78.36
1 uM CNL001, first column
  YFP fluorescence quenching using CNL001: 69.836%
1 uM CNL001, second column
  YFP fluorescence quenching using CNL001: 73.855%
1 uM CNL002
  YFP fluorescence quenching using CNL002: 9.69%
1 uM abt
  YFP fluorescence quenching using ABT-126: 1.71%
1 uM brd
  YFP fluorescence quenching using TC-5619/Bradanicline: 75.39%
1 uM tc6987
  YFP fluorescence quenching using TC-6987: −9.54
10 uM fac
  YFP fluorescence quenching using Facinicline: 81.93
10 uM tc6987
  YFP fluorescence quenching using TC-6987: −7.06
30 uM CNL002
  YFP fluorescence quenching using CNL002: −12.85%
30 uM azd0328
  YFP fluorescence quenching using AZD-0328: 79.44%
30 uM fac
  YFP fluorescence quenching using Facinicline: 78.63
500 uM tc6987
  YFP fluorescence quenching using TC-6987: −15.15
  percent quench of YFP fluorescence, 10 uM ach: −6.16%
  percent quench of YFP fluorescence, 100 uM ach: −11.12%
  percent quench of YFP fluorescence, 1 mM ach: −2.74%
  percent quench of YFP fluorescence, 3 mM ach: 53.61%
